From patent US5712366, “Fabrication of nanoscale materials using self-assembling proteins” (The United States of America as represented by the …, dated 1998) come the findings set out here.

Experiment [1] concerns the target T1, polypeptide B2 (amino acid sequence of FIG. 4B).
T1 chain: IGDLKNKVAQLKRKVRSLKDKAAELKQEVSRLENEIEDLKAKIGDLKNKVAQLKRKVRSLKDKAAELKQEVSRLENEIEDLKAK
The experiment is described as follows: turbidity at 400 nm on mixing at equal concentrations; gel analysis of the precipitate. From the text:
First, the interaction between polypeptides A2 and B2 was investigated using turbidity measurements at 400 nm. […] When the polypeptides were mixed at equal concentrations, a rapid increase in turbidity was seen. This was attributed to specific heterodimer formation, which subsequently associated into higher order structures that precipitated in solution. […] No similar increase in the turbidity of the homodimer solutions was observed prior to mixing.

Experiment [2] concerns the target T2, polypeptide C2 (amino acid sequence of FIG. 4C).
T2 chain: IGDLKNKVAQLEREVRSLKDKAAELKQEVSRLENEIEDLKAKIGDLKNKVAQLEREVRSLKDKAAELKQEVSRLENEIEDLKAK
Kind of experiment: surface plasmon resonance, one species immobilized onto a gold film. The protocol:
Next, the interaction of polypeptide A2 with polypeptides B2 and C2, when both of the components were free in solution and when one species was immobilized onto a gold film, was examined. The immobilization tests were performed to measure the rates of association and dissociation between the complexes. Surface plasmon resonance was used to detect minute changes in refractive index that accompanied a specific binding event in the immediate vicinity of the metal surface. […] After an initial increase in refractive index due to solvent exchange, it is seen that the rate of association for the A2-B2 complex was more rapid and that the equilibrium response was achieved sooner. […] For the A2-C2 interaction, kass=3.46×10^3, kdiss=[…], and K_a=1.45×10^6.
For orientation: SPR reads the build-up and loss of mass on a sensor chip optically.

B1: polypeptide A2 (amino acid sequence of FIG. 4A) (designed binder)
chain: IGDLENEVAQLEREVRSLEDEAAELEQKVSRLKNEIEDLKAEIGDLENEVAQLEREVRSLEDEAAELEQKVSRLKNEIEDLKAE
In the case of B1, the binding result in experiment [1] and in experiment [2] was “binds” each time.
